In patent US20140161803A1 (IFOM FONDAZIONE ISTITUO FIRC DI ONCOLOGIA MOLECOLARE, published 2014):
Residue numbers refer to the chain shown, from its start. Read-outs that look alike come from different tables or passages of the source.

B1: 13F6 (antibody, mouse IgG1, V domains shown)
VH: ELVKPGASVELSCKASGYTFTSYWMNWVKQRPGRGLEWIGRIAPNSGGTQYSGKFKTKATLTVDKSSSTAYMQLSSLTSEDSAVYYCARGDYFGHFDYWGQGTTLTVS
VL: SLSASLGGKVTITCKASQDINNYIAWYQHKPGKGPRLLIHYTSILQPGIPSRFSGSGSGRDYSFSISNLEPEDIATYYCLQCDNLLTFGAGTKLELK
B2: BE18 (antibody, mouse IgG1, V domains shown)
VH: ELVKPGASVKIICKASGYIFTDYNMDWVKQSHGKSLEWIGEINPNNGDTIYNQNFKGKATLTVDKSSSTAHMALRSLTSEDTAVYYCTRKGGLRAWFVYWGQGTLVTVS
VL: MSASPGEKVTMTCRASSSVSSSYLHWYQQKSGASPKVWIYSTSNLASGVPARFSGSGSGTSYSLTISSVEAEDAATYYCQQYSGYPLTFGSGTKLEIQ
B3: ^GFDuPARmyc (receptor)
chain: SNELHQVPSNCDCLNGGTCVSNKYFSNIHWCNCPKKFGGQHCEIDKSKGGAGAAGGLRCMQCKTNGDCRVEECALGQDLCRTTIVRLWEEGEELELVEKSCTHSEKTNRTLSYRTGLKITSLTEVVCGLDLCNQGNSGRAVTYSRSRYLECISCGSSDMSCERGRHQSLQCRSPEEQCLDVVTHWIQEGEEGRPKDDRHLRGCGYLPGCPGSNGFHNNDTFHFLKCCNTTKCNEGPILELENLPQNGRQCYSCKGNSTHGCSSEETFLIDCRGPMNQCLVATGTHEPKNQSYMVRGCATASMCQHAHLGDAFSMNHIDVSCCTKSGCNHPGGEQKLISEEDL
notes: used as concentrated CHO conditioned medium; also called soluble GFDuPAR
B4: 13D11 (antibody, V domains shown)
VH: ELMKPGASVKLSCKATGYTFTDYWIEWVKQRPGHGLEWIGEILPGRDSTDYNENFKGKATFTADTSSNTAYMQLSSLTTEDSAIYYCARDYYGHISNWYFDVWGTGTTVTVS
VL: SLSASLGERVSLTCRASQDIGSSLNWLQQEPDGTIKRLIYATSSLDSGVPKRFSGSRSGSDYSLTISSLESVDFVVYYCLQYATSPYTFGGGTKLEIKR
B5: 19.10 (antibody, V domains shown)
VH: ELVKPGASVKLSCKATGYTFTVYWMEWVRQRPGHGLEWIGEILPGSGRTNYNERFKGKATFTADTSSNTAYMQLSSLTTEDSAIYYCARDYSGDTSTGYFDVWGTGTTVTVS
VL: B4 VL with S23G, N25S, V72E, V76D
B6: AL6 (antibody, V domains shown)
VH: ELMKPGASVKLSCKATGYSFTGYWIEWVKQRPGHGLEWIGEILPGSDRTNYNEKFKGKATFTADTSSNTAYMQLSSLTTEDSAIYYCARDDYDRGLYIMDYWGQGTSVTVS
VL: B4 VL with S22T, K36R, D46P, S47P, V72E, V76N
B7: uPARmyc (receptor)
chain: LRCMQCKTNGDCRVEECALGQDLCRTTIVRLWEEGEELELVEKSCTHSEKTNRTLSYRTGLKITSLTEVVCGLDLCNQGNSGRAVTYSRSRYLECISCGSSDMSCERGRHQSLQCRSPEEQCLDVVTHWIQEGEEGRPKDDRHLRGCGYLPGCPGSNGFHNNDTFHFLKCCNTTKCNEGPILELENLPQNGRQCYSCKGNSTHGCSSEETFLIDCRGPMNQCLVATGTHEPKNQSYMVRGCATASMCQHAHLGDAFSMNHIDVSCCTKSGCNHPGGEQKLISEEDL
notes: monomeric control receptor; used as concentrated CHO conditioned medium without purification; also called soluble monomeric form of uPAR with a C-terminal myc-tag

Tests used:
wild-type human uPAR = wild-type human uPAR (human, UniProt Q03405 23-305, GPI-anchor on Gly283); assay: cell-based or functional assay
pro-uPA [1] = biological target: T1, pro-uPA (UniProt P00749 21-431, limits assumed, Eu3+-label in the cell binding competition assay); assay: soluble receptor titrated on immobilized pro-uPA; detection 13F6 + Eu3+ anti-mouse, time-resolved fluorescence
T1 construct: also called immobilized uPA
Experimental: The bound material was detected by measuring time-resolved fluorescence intensity. Specific binding was calculated by subtracting the non-specific binding measured in uncoated wells incubated with identical samples. […] The binding curve and dissociation constant (Kd) were calculated by non-linear regression (four-parameter fit) using the Prism 5.0 software suite.
ON. […] The Eu³⁺-label was detected by measuring time-resolved fluorescence intensity using an Envision Xcite plate reader (Perkin Elmer Corp.) employing the DELFIA label protocol. To calculate the specific binding, non-specific binding measured in uncoated wells, incubated with identical samples, was subtracted from the total binding measured in coated wells.

vitronectin = biological target: T2, vitronectin (UniProt P04004 20-478, limits assumed); assay: soluble receptor titrated on immobilized VN without pro-uPA; detection 13F6 + Eu3+ anti-mouse, time-resolved fluorescence
T2 construct: also called VN; immobilized VN
T2 sequence (P04004 20-478 limits assumed): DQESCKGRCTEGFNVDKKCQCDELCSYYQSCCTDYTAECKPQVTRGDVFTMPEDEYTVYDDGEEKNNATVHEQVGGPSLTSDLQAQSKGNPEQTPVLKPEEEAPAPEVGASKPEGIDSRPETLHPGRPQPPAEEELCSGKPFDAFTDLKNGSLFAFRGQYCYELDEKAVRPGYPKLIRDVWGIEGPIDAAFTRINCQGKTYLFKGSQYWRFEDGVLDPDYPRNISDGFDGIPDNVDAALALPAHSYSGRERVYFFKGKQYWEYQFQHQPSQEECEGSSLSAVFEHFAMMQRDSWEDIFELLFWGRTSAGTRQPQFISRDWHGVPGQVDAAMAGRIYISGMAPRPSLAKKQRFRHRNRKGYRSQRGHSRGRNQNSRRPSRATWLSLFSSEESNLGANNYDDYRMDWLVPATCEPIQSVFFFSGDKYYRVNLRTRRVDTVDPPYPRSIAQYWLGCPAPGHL
Experimental: The data are from a single experiment and presented as means±SD. The binding curve and Kd were calculated by non-linear regression. […] The data are from a single experiment and are represented as means±SD. The binding curve and Kd were calculated by non-linear regression.

pro-uPA [2] = biological target: T1, pro-uPA; assay: soluble receptor titrated on immobilized pro-uPA; detection 13F6 + Eu3+ anti-mouse, time-resolved fluorescence; remark: listed apart in the source
Experimental: The bound material was detected by measuring time-resolved fluorescence intensity. Specific binding was calculated by subtracting the non-specific binding measured in uncoated wells incubated with identical samples. The data shown are means±SD from a representative experiment. The binding curve, equilibrium dissociation constant (Kd, in nanomolar units) and maximum binding capacity (Bmax, in CPS units (counts per second)) were calculated by non-linear regression (four-parameter fit) using the Prism 5.0 software suite.

| Binder | % max inhibition (pro-uPA pre-treat.) (wild-type human uPAR) [%] | % max inhibition (veh. pre-treat.) (wild-type human uPAR) [%] | Kd (pro-uPA [1]) [nM] | Kd (vitronectin) [nM] | Kd (pro-uPA [2]) [nM] |
| --- | --- | --- | --- | --- | --- |
| B1 | < 20 | < 20 |  |  |  |
| B2 | < 20 | 37 |  |  |  |
| B3 |  |  | 28 | 0.62 |  |
| B4 | 82 | 38 |  |  |  |
| B5 | 79 | 67 |  |  |  |
| B6 | < 20 | < 20 |  |  |  |
| B7 |  |  | 1.1 |  | 11 |
